From publication PMC11075064

Target: KCC2 (SLC12A5), neuron-specific K+/Cl- transporter (mouse (endogenous in brain)) (UniProt Q91V14)
Experiment: co-IP

Sequence of UniProt Q91V14 (Q91V14 whole entry): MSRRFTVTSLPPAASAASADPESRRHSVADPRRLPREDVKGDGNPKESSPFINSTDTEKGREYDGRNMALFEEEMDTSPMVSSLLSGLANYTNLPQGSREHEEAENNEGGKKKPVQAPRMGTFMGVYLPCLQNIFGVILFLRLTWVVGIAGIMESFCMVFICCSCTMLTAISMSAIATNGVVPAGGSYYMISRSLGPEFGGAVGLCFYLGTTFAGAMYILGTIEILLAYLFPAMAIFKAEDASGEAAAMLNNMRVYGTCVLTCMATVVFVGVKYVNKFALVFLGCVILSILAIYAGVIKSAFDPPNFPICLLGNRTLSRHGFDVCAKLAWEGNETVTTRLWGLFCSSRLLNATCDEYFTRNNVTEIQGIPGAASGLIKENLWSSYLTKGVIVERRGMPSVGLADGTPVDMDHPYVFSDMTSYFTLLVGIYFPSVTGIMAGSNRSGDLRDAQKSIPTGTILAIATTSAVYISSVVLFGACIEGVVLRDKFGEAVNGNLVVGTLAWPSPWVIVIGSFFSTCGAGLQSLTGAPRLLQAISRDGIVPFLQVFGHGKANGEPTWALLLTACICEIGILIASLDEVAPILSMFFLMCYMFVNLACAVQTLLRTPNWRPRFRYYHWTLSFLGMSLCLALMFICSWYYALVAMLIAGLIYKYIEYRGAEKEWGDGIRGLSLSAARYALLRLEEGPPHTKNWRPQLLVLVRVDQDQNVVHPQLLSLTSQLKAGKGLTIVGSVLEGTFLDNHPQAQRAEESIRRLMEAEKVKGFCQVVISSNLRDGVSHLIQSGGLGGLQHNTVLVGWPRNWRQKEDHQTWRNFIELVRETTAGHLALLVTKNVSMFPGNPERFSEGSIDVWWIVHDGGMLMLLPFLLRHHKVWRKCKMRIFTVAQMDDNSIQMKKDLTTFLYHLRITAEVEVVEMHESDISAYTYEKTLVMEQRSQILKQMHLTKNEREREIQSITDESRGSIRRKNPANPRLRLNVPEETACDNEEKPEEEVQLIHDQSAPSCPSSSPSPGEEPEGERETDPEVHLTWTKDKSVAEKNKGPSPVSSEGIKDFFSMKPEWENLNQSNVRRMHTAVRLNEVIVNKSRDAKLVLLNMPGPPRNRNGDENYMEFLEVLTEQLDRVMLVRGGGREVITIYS

catalytic subunit of protein phosphatase-1 (PP1) (from UniProt P62137 1-330) (enzyme)
ratio of PP1/KCC2 immunoreactivity in LMTK3 KO mice, percent of WT: 28.6 % of WT
